Results published in US20200024330A1.

Columns and labels:
Experiment in all cases: cell-based or functional assay
[1] = biological target: HIV-1 JR-CSF Env T388A (HIV-1 (isolate JR-CSF)) (UniProt P20871)
[2] = biological target: HIV-1 JR-CSF Env I424A (HIV-1 (isolate JR-CSF)) (UniProt P20871)
[3] = biological target: HIV-1 JR-CSF Env T320A (HIV-1 isolate JR-CSF) (UniProt P20871)
[4] = biological target: HIV-1 JR-CSF Env K343A (HIV-1 isolate JR-CSF) (UniProt P20871)
[5] = biological target: HIV-1 JR-CSF Env D325A (HIV-1 isolate JR-CSF) (UniProt P20871)
[6] = biological target: HIV-1 JR-CSF Env D417A (HIV-1 (isolate JR-CSF)) (UniProt P20871)
[7] = biological target: HIV-1 JR-CSF Env V292A (HIV-1 JR-CSF) (UniProt P20871)
[8] = biological target: Env of the clade C HIV-1 pseudoviruses of the cross-clade 162-pseudovirus panel (n = 27)
[9] = biological target: HIV-1 JR-CSF Env L416A (HIV-1 (isolate JR-CSF)) (UniProt P20871)
[10] = biological target: HIV-1 JR-CSF Env N396A (HIV-1 (isolate JR-CSF)) (UniProt P20871)
[11] = biological target: HIV-1 JR-CSF Env S393A (HIV-1 (isolate JR-CSF)) (UniProt P20871)
[12] = biological target: HIV-1 JR-CSF Env R315A (HIV-1 isolate JR-CSF) (UniProt P20871)
[13] = biological target: HIV-1 JR-CSF Env F317A (HIV-1 isolate JR-CSF) (UniProt P20871)
[14] = biological target: HIV-1 JR-CSF Env F210A (HIV-1 JR-CSF) (UniProt P20871)
[15] = biological target: HIV-1 JR-CSF Env N302A (HIV-1 JR-CSF) (UniProt P20871)
[16] = biological target: HIV-1 JR-CSF Env I414A (HIV-1 (isolate JR-CSF)) (UniProt P20871)
[17] = biological target: HIV-1 Env of isolate 92TH021 (HIV-1)
[18] = biological target: HIV-1 JR-CSF Env N262A (HIV-1 JR-CSF) (UniProt P20871)
[19] = biological target: HIV-1 JR-CSF Env I307A (HIV-1 JR-CSF) (UniProt P20871)
[20] = biological target: Env of the clade B HIV-1 pseudoviruses of the cross-clade 162-pseudovirus panel (n = 31)
[21] = biological target: HIV-1 JR-CSF Env S334A (HIV-1 isolate JR-CSF) (UniProt P20871)
[22] = biological target: HIV-1 JR-CSF Env S387A (HIV-1 (isolate JR-CSF)) (UniProt P20871)
[23] = biological target: HIV-1 JR-CSF Env W395A (HIV-1 (isolate JR-CSF)) (UniProt P20871)
[24] = biological target: HIV-1 JR-CSF Env I326A (HIV-1 isolate JR-CSF) (UniProt P20871)
[25] = biological target: HIV-1 JR-CSF Env T202A (HIV-1 JR-CSF) (UniProt P20871)
[26] = biological target: HIV-1 Env of isolate MGRM-C-026 (HIV-1)
[27] = biological target: HIV-1 JR-CSF Env S199A (HIV-1 JR-CSF) (UniProt P20871)
[28] = biological target: HIV-1 JR-CSF Env P313A (HIV-1 JR-CSF) (UniProt P20871)
[29] = biological target: HIV-1 JR-CSF Env N241A (HIV-1 JR-CSF) (UniProt P20871)
[30] = biological target: HIV-1 JR-CSF Env T297A (HIV-1 JR-CSF) (UniProt P20871)
[31] = biological target: Env of the clade G HIV-1 pseudoviruses of the cross-clade 162-pseudovirus panel (n = 15)
[32] = biological target: HIV-1 JR-CSF Env N339A (HIV-1 isolate JR-CSF) (UniProt P20871)
[33] = biological target: Env of the clade AG HIV-1 pseudoviruses of the cross-clade 162-pseudovirus panel (n = 10)
[34] = biological target: HIV-1 JR-CSF Env T319A (HIV-1 isolate JR-CSF) (UniProt P20871)
[35] = biological target: HIV-1 JR-CSF Env I423A (HIV-1 (isolate JR-CSF)) (UniProt P20871)
[36] = biological target: Env of all HIV-1 pseudoviruses of the cross-clade 162-pseudovirus panel (n = 162)
[37] = biological target: HIV-1 JR-CSF Env I309A (HIV-1 JR-CSF) (UniProt P20871)
[38] = biological target: HIV-1 JR-CSF Env I415A (HIV-1 (isolate JR-CSF)) (UniProt P20871)
[39] = biological target: HIV-1 JR-CSF Env K305A (HIV-1 JR-CSF) (UniProt P20871)

B1: PGT-127 (antibody, V domains shown)
VH: QPQLQESGPGLVEASETLSLTCTVSGDSTGRCNYFWGWVRQPPGKGLEWIGSLSHCRSYYNTDWTYHNPSLKSRLTISLDTPKNQVFLRLTSVTAADTATYYCARFGGEVLVYRDWPKPAWVDLWGRGTLVVTVS
VL: QSALTQPPSASGSPGQSITISCTGTSNNFVSWYQQYPGKAPKLVIYEVNKRPSGVPDRFSGSKSGSTASLTVSGLQADDEGVYYCSSLVGNWDVIFGGGTKLTVL
B1 was tested, and the Fold IC50 increase relative to wild-type [1] was 0.5 fold, the Fold IC50 increase relative to wild-type [2] was 2 fold and the Fold IC50 increase relative to wild-type [3] was 1.8 fold. It also gave a Fold IC50 increase relative to wild-type [4] of 1 fold, a Fold IC50 increase relative to wild-type [5] of 0.93 fold and a Fold IC50 increase relative to wild-type [6] of 0.4 fold. For the same binder, the Fold IC50 increase relative to wild-type [7] was 0.9 fold, the Median IC50 against viruses neutralized with an IC50 <50 µg/ml [8] was 0.55 µg/mL and the Fold IC50 increase relative to wild-type [9] was 1 fold. For the same binder, the Fold IC50 increase relative to wild-type [10] was 2.4 fold, the Fold IC50 increase relative to wild-type [11] was 1.2 fold and the Fold IC50 increase relative to wild-type [12] was 0.3 fold. It also gave a Fold IC50 increase relative to wild-type [13] of 0.2 fold, a Fold IC50 increase relative to wild-type [14] of 0.8 fold and a Fold IC50 increase relative to wild-type [15] of 3 fold. For the same binder, the Fold IC50 increase relative to wild-type [16] was 2.2 fold, the IC50 (µg/mL), pseudovirus neutralization [17] was over 50 µg/mL and the Polyclonal Transfectant Neutralization Index (well 5145 B14) [17] was 0.94. For the same binder, the Primary Neutralization Index (B cell culture well 5145 B14) [17] was 1, the Fold IC50 increase relative to wild-type [18] was 1.4 fold and the Fold IC50 increase relative to wild-type [19] was 10.2 fold. For the same binder, the Median IC50 against viruses neutralized with an IC50 <50 µg/ml [20] was 0.06 µg/mL, the Fold IC50 increase relative to wild-type [21] was over 500 fold and the Fold IC50 increase relative to wild-type [22] was 1 fold. The Fold IC50 increase relative to wild-type [23] was 1.6 fold, the Fold IC50 increase relative to wild-type [24] was 3.5 fold and the Fold IC50 increase relative to wild-type [25] was 1.8 fold. The Polyclonal Transfectant Neutralization Index (well 5145 B14) [26] was 2.62, the Primary Neutralization Index (B cell culture well 5145 B14) [26] was 86.9 and the Fold IC50 increase relative to wild-type [27] was 3 fold. It also gave a Fold IC50 increase relative to wild-type [28] of 1.3 fold, a Fold IC50 increase relative to wild-type [29] of 0.6 fold and a Fold IC50 increase relative to wild-type [30] of 1.7 fold. The Median IC50 against viruses neutralized with an IC50 <50 µg/ml [31] was 0.22 µg/mL, the Fold IC50 increase relative to wild-type [32] was 1.1 fold and the Median IC50 against viruses neutralized with an IC50 <50 µg/ml [33] was 0.04 µg/mL. It also gave a Fold IC50 increase relative to wild-type [34] of 1 fold, a Fold IC50 increase relative to wild-type [35] of 0.5 fold and a Median IC50 against viruses neutralized with an IC50 <50 µg/ml [36] of 0.08 µg/mL. It also gave a Fold IC50 increase relative to wild-type [37] of 6 fold, a Fold IC50 increase relative to wild-type [38] of 2.1 fold and a Fold IC50 increase relative to wild-type [39] of 2.6 fold.

B2: PGT-125 (antibody, V domains shown)
VH: QSQLQESGPRLVEASETLSLTCNVSGESTGACTYFWGWVRQAPGKGLEWIGSLSHCQSFWGSGWTFHNPSLKSRLTISLDTPKNQVFLKLTSLTAADTATYYCARFDGEVLVYNHWPKPAWVDLWGRGIPVTVSS
VL: QSALTQPPSASGSPGQSITISCNGTATNFVSWYQQFPDKAPKLIIFGVDKRPPGVPDRFSGSRSGTTASLTVSRLQTDDEAVYYCGSLVGNWDVIFGGGTTLTVL
B2 showed a Fold IC50 increase relative to wild-type [1] of 0.6 fold, a Fold IC50 increase relative to wild-type [2] of 0.7 fold and a Fold IC50 increase relative to wild-type [3] of 0.8 fold. For the same binder, the Fold IC50 increase relative to wild-type [4] was 0.7 fold, the Fold IC50 increase relative to wild-type [5] was 0.4 fold and the Fold IC50 increase relative to wild-type [6] was 0.5 fold. For the same binder, the Fold IC50 increase relative to wild-type [7] was 3.3 fold, the Median IC50 against viruses neutralized with an IC50 <50 µg/ml [8] was 1.83 µg/mL and the Fold IC50 increase relative to wild-type [9] was 0.8 fold. It also gave a Fold IC50 increase relative to wild-type [10] of 1.6 fold, a Fold IC50 increase relative to wild-type [11] of 0.5 fold and a Fold IC50 increase relative to wild-type [12] of 0.9 fold. It also gave a Fold IC50 increase relative to wild-type [13] of 1.8 fold, a Fold IC50 increase relative to wild-type [14] of 1.4 fold and a Fold IC50 increase relative to wild-type [15] of 0.7 fold. The Fold IC50 increase relative to wild-type [16] was 0.3 fold, the IC50 (µg/mL), pseudovirus neutralization [17] was 0.006 µg/mL and the Polyclonal Transfectant Neutralization Index (well 5123 A6) [17] was 50.6. It also gave a Primary Neutralization Index (B cell culture well 5123 A6) [17] of 133, a Fold IC50 increase relative to wild-type [18] of 0.9 fold and a Fold IC50 increase relative to wild-type [19] of 5 fold. It also gave a Median IC50 against viruses neutralized with an IC50 <50 µg/ml [20] of 0.02 µg/mL, a Fold IC50 increase relative to wild-type [21] of 0.8 fold and a Fold IC50 increase relative to wild-type [22] of 0.6 fold. For the same binder, the Fold IC50 increase relative to wild-type [23] was 0.9 fold, the Fold IC50 increase relative to wild-type [24] was 0.9 fold and the Fold IC50 increase relative to wild-type [25] was 0.8 fold. For the same binder, the Polyclonal Transfectant Neutralization Index (well 5123 A6) [26] was 88.3, the Primary Neutralization Index (B cell culture well 5123 A6) [26] was 512 and the Fold IC50 increase relative to wild-type [27] was 0.7 fold. The Fold IC50 increase relative to wild-type [28] was 0.3 fold, the Fold IC50 increase relative to wild-type [29] was 0.5 fold and the Fold IC50 increase relative to wild-type [30] was 0.9 fold. It also gave a Median IC50 against viruses neutralized with an IC50 <50 µg/ml [31] of 0.02 µg/mL, a Fold IC50 increase relative to wild-type [32] of 0.9 fold and a Median IC50 against viruses neutralized with an IC50 <50 µg/ml [33] of 0.01 µg/mL. For the same binder, the Fold IC50 increase relative to wild-type [34] was 1.1 fold, the Fold IC50 increase relative to wild-type [35] was 5 fold and the Median IC50 against viruses neutralized with an IC50 <50 µg/ml [36] was 0.04 µg/mL. The Fold IC50 increase relative to wild-type [37] was 1 fold, the Fold IC50 increase relative to wild-type [38] was 0.3 fold and the Fold IC50 increase relative to wild-type [39] was 1.9 fold.
